Measurements from the DeepSol protein solubility set.

Experiment: soluble on expression in E. coli; label from the status in PepcDB or PDB records

Row | Sequence | soluble on expression in E. coli
1 | MKSIYITGYMGAGKTTIGKALSKELHMDVVDTDQKIEEKQGKVIRDIFAEEGEMAFREYESEMLCSLPVDNVIITTGGGIVEREENRKWMKENGTVVYLYCDPHVIAERLREDTTRPLFQKKDIDAFVTKFESRRAYYEEAHIHIDTTNKSVKQIMNELKEKINE | not soluble
2 | SNATAFVPALVASGLPNEKFCFEGFLPQKKGRMTKLKSLVDEHRTMVFYESPHRLLKTLTQFAEYFGPERQVSVSREISKIHEETVRGTLSELIEHFTATDPRGEIVIVLAGIDD | soluble
3 | MITLHTNFGDIKIQLNFEKAPVTSANFEQYCREGFYDNTLFHRVIDGFMIQGGGMTSGLREKETRDPIRNEANNGLSNKVGTIAMARTMDPHSASSQFFINVNNNTFLDFRSESRDGWGYCVFGEVVEGMDIVNKIKGVSTGSYGMHQDVPLEEVVITGTTIEA | not soluble
4 | MAEKRKLLAEIDKCFKKIDEGVELFEETMEKMHEANSDNQRDKYQDDLKKEIKKLQRLRDQVKNWQNASEIKDKDKLNSYRKLIEQRMEQFKDVERENKTKPHSKLGLSAEEKLDPKEKEKAETMDWIQHQIRSLNEEVDRTEMQLESLSNTDTGKGKRGKKEDAKTKNEREKRVEGLKHHLERINFHIEKLEICMRMISNESLNAKMVLETLKEPIETYVEMMNEEDSEEADNYDPDDAYDELNLEKLCQQIGGVNVASVDDEHRENGHELGIDTAESGAVSGSRHTSGENGQPPSPAGRRIVPLSMPSPHAVTPELKRLASKDSNVDRPRTPPVTPASAAPPPPGIPYNSVAAGRSTTTPVPSTPISANSPAPSLAQAAPIAAASPVFPPAAAAASKPVLAQSVSEMPQKKESITSTTSRGSAAAPATTTTTTTTTTSSEPAEVPLVVQQTVSETFVNGVDSPAAATRLTQQERQQQLQQQHHHQSTIIPTTPTTTTTSSSMLGGMMSTDDPAAALQAALNMAAASQQAVATGPKRAHIPAWLGASPLGRTSMTQEFDGQLAALELACAKATFPLDSEKPRNYLSKVSFPVPSWYGQTAPNTSDSLEYYLRLAPDTLFFIFYYMEGTRAQLLAAKALKKLSWRFHTKYLTWFQRHEEPKQITDDYEQGTYVYFDFEKWSQRKKESFTFEYKFLEDKEFD | not soluble
5 | GPGSMVHRQDGAVVHCSRETGRLSAIIAPSILASDFAQLLSECQSVLSPEGGAADWLHVDVMDGHFVPNISIGMCVVQSLRSHLQDVFLDVHCMVSDPDRWVEEMAKAGATQMTFHVEAVADPKAVARHIRAAGMLCGVALKPKTPVSSVLNLVEEQLIDMVLVMTVEPGFGGQSFMQDMMPKVEELRARFPCLNIQVDGGIGPGTIDAPARAGANVIVAGTSIFRADSRKEATESMRRVVQGYLGSTTS | soluble
6 | MAIVPRPITKFKRACLRIKLARCQKTPLSNFARSDLRSFSVFRFNLSVLQLVSSKIVKLDIMKQAAITSALTQNKMDPINGNLTSTAPVEPLSLTAAEQVGGAFCHQFYITVSENRKAITKFYGHESKFYLDDQVVTGSQEIVKLYNHLPETTHFKIQSIKGYPTPHKQGVIINVIGTVNLRPFLQSFLLGQQGQKKYYVESDAFQYIDKFFVANTEKEKTTSSTGHNGHASGANGKDSKSSKTEQPKEQSKPAPPKQQTPKKAEDRIVKQDTPKSVEKEVAKTPQKPQLAQQPPQQRAPVPEPVQEQPKVQKTWANLVGGGGKSQPPQQQSYGQGQQIHQQTQMHHMQPSMHQQQQGSHAPLYQQQRQSHPANELRQAQESSDANLNERKIYLGGITREIVPSNTAQAESEIKQVFYKYGEIEEVRMPRKVLDSPNDTSKHAFAFITMRNKAGVKAIFEAATKDEQGVWKLPLKLDAFGFDGHAQISEQRDQPQGGGFRGGRGGFQPRGGQFFRRGGSGGAPRGGMRSGFQNAGQN | not soluble
7 | MGSDKIHHHHHHMKRSQINEIMAEAETFMRSFGFVLPPFAYWTPEEMRANASVAKAVIDGRLGWDITDYGEGKFDELGLFLFTLRNGRLSDLQAGGGMCYAEKLLISKQDQISPMHRHMLKAEDIINRGGATMAIELNGSAPDGSFDPDAGGVVMCDGIERRFSAGEVLLFAPGESVTLMPGDWHKFWGEGGDVLIGEVSTVNNDDTDNWFREPIGRFAAVDEDVAPTHLLVSDYGTWL | not soluble
8 | MSLNVVGYVRLSRDEDKENYSSIITQKNIIEEYSKNKNWTVNRIYVDDNCSGYTFERPEFLKMMYEIKERKIDVIVAKDLSRIGRNNGKVLVFIDKLKEKGIRLILVEEATGGLDLLEDNYDILGIKTWYNEMYVKDISRKIRASMHLKQKKGKEGHHHHHH | soluble
9 | MGSDKIHHHHHHMNTNDTELLRLFETLTTEQKIDIARHLLQNKDIKSTTVIATEEDKAISFAQPYVFAFTSNFRVFSDLDISKNEFRVLTYILEYMEFGNLINLSQSSLCKALNIASGNMSNIFKKLKQKGILVEHHGHLYINSNIFAKGLSHQLDEKRKEHLSNARSLHAELEQYPENYTDYSKQERRNLALETETKEIYTDAFIFSKKKKNNAVPNAKNSIKIDKPRKVYKRTKENEAARKDLADAKNHLKAVS | not soluble
10 | AKTKAAVSMEGFSWGNYINSNSFIAAPVTCFKHAPMGTCWGDISENVRVEVPNTDCSLPTKVFWIAGIVKLAGYNALLRYEGFENDSGLDFWCNICGSDIHPVGWCAASGKPLVPPRTIQHKYTNWKAFLVKRLTGAKTLPPDFSQKVSESMQYPFKPCMRVEVVDKRHLCRTRVAVVESVIGGRLRLVYEESEDRTDDFWCHMHSPLIHHIGWSRSIGHRFKRSDITKKQDGHFDTPPHLFAKVKEVDQSGEWFKEGMKLEAIDPLNLSTICVATIRKVLADGFLMIGIDGSEAADGSDWFCYHATSPSIFPVGFCEINMIELTPPRGYTKLPFKWFDYLRETGSIAAPVKLFNKDVPNHGFRVGMKLEAVDLMEPRLICVATVTRIIHRLLRIHFDGWEEEYDQWVDCESPDLYPVGWCQLTGYQLQPPASQSSR | soluble
11 | MGSDKIHHHHHHMMENFPKPVVVVSKCLGFDSCRYNGDIIDAPFVDKLRSHVTFVPVCPEVEIGLGVPRKPIRIVSDKGITTLYQPATGKDFTGTMRSFVDDFLGSLTEVDGFLLKNRSPSCGVGDVKIHAGFDEGARMFRGSGFLGGAVLERFAGLPVEDEGRIRNFTIREHFLTRLFLFARFREVKKSGSMRGLVDFHSLQKLLLMGYNQAQMRLLGKIVANHEKADWNTMITRYEEQLKRALANPPRFTAMINVLLHAFGGFSNVLAKEEKAFFLDLIEEYRDERIPLSALLQVLRGWSIRFRNDYLLGQTFLQPYPGQLSKITDSGKGREP | not soluble
12 | MGSDKIHHHHHHMQKLGIFIYSLGSGGAERVVATLLPILSLKFEVHLILMNDKISYEIPECQIHFLECSKPSENPILKFLKLPFLALKYKKLCRNLGIDTEFVFLNRPNYIALMARMFGNKTRLVINECTTPSVMYMKNNFNSLVNKFLISLLYPKADLILPNSKGNLEDLVQNFSISPKKCEILYNAIDLENIGQKALEDIALKDKFILSVGRLDKGKNHALLIRAYARLKTDLKLVILGEGVLKDELLALIKELNLEEKVLLLGFDNNPYKYMAKCEFFAFASVFEGFSNVLIESLACSCAVVCTDHKSGARELFGDDEFGLLVEVDNENSMFQGLKTMLEDDKLRKAYKNKAKTRAKAFDKVKIARDALKYLLG | not soluble
13 | MLTIQFLCPLPNGLHARPAWELKEQCSQWQSEITFINHRQNAKADAKSSLALIGTGTLFNDSCSLNISGSDEEQARRVLEEYIQVRFIDSDSVQPTQAELTAHPLPRSLSRLNPDLLYGNVLASGVGVGTLTLLQSDSLDSYRAIPASAQDSTRLEHSLATLAEQLNQQLRERDGESKTILSAHLSLIQDDEFAGNIRRLMTEQHQGLGAAIISNMEQVCAKLSASASDYLRERVSDIRDISEQLLHITWPELKPRNKLVLEKPTILVAEDLTPSQFLSLDLKNLAGMILEKTGRTSHTLILARASAIPVLSGLPLDAIARYAGQPAVLDAQCGVLAINPNDAVSGYYQVAQTLADKRQKQQAQAAAQLAYSRDNKRIDIAANIGTALEAPGAFANGAEGVGLFRTEMLYMDRDSAPDEQEQFEAYQQVLLAAGDKPIIFRTMDIGGDKSIPYLNIPQEENPFLGYRAVRIYPEFAGLFRTQLRAILRAASFGNAQLMIPMVHSLDQILWVKGEIQKAIVELKRDGLRHAETITLGIMVEVPSVCYIIDHFCDEVDFFSIGSNDMTQYLYAVDRNNPRVSPLYNPITPSFLRMLQQIVTTAHQRGKWVGICGELGGESRYLPLLLGLGLDELSMSSPRIPAVKSQLRQLDSEACRELARQACECRSAQEIEALLTAFTPEEDVRPLLALENIFVDQDFSNKEQAIQFLCGNLGVNGRTEHPFELEEDVWQREEIVTTGVGFGVAIPHTKSQWIRHSSISIARLAKPIGWQSEMGEVELVIMLTLGANEGMNHVKVFSQLARKLVNKNFRQSLFAAQDAQSILTLLETELTF | soluble
14 | MAGVAEFNDKGELLLPKNYREWVMVGTQVTPNELNDGKAPFTEIRTVYVDPESYAHWKKTGEFRDGTVTVKELVSVGDRKGPGSGNGYFMGDYIGLEASVKDSQRFANEPGNWAFYIFYVPDTPLVAAAKNLPTAECAACHKENAKTDMVFTQFYPVLRAAKATGESGVVAPKKLAAALEHHHHHH | soluble
15 | MGSSHHHHHHSSGLVPRGSHMSRVTVLQSQLPAYNRLKTPYESELIATVKKLTTPGKGLLAADESIGSCTKRFQPIGLSNTEEHRRQYRALMLEAEGFEQYISGVILHDETVGQKASNGQTFPEYLTARGVVPGIKTDMGLCPLLEGAEGEQMTEGLDGYVKRASAYYKKGCRFCKWRNVYKIQNGTVSESAVRFNAETLARYAILSQMSGLVPIVEPEVMIDGKHDIDTCQRVSEHVWREVVAALQRHGVIWEGCLLKPNMVVPGAESGKTAAPEQVAHYTVMTLARTMPAMLPGVMFLSGGLSEVQASEYLNAINNSPLPRPYFLSFSYARALQSSALKAWGGKESGLAAGRRAFLHRARMNSMAQLGKYKRSDDDASSSSLYVKGNTY | soluble
16 | HHHHHSSGLVPRGSHMTNPAYFPQLSQLDVSGEMESTYEDIRLTLRVPWVAFGCRVLATFPGYLPLAWRRSAEALITRYAEQAADELRERSLLNIGPLPNLKERLYAAGFDDGEIEKVRRVLYAFNYGNPKYLLLITALSESMQMRPVGGAEVSSELRASIPKGHPKGMDPLLPLVDATKASTEVQGLLKRVADLHYHHGPASDFQALANWPKVLQIVTDEVLAPVARTEQYDAKSRELVTRARELVRGLPGSAGVQRSELMSMLTPNELAGLTGVLFMYQRFIADITISIIHITECLDGAEAASKSPFPI | soluble
17 | MGSDKIHHHHHHMSNAKRLLVSDMKMGVDISENELLRQSEGLLQRLLFDHTTQRNIFWATDDYTTLGDAYKYDAPITTDSITGEHDTVIQPRVLKSKEEQANRTKDKAEVFTPSWVCNAQNNLIDEAWFGRKDVFNIEQPETKTWIATTEPITFPEGKTWKDYVCSTRMEITCGEAPYLVSRYDTTTGEFIPIPQRIGMLDRKLRIISENTSSTGEWLKMAQKAYKNIYAYEWQGDNLLLAREALLITFIEYYEEKFGKRPLDKSIEYIAYIISWNVWQMDGLKGVVPNSCTHGVSVLPDDLFESMEELILCPGCQNESIKKHNGTYCLIRDWGCKDPKTGENNRKIRFVDLIKNNI | not soluble
18 | MSAWTMSDPYPATEAHAQRAAKSSPKSLLDRLLSLVRREPEDREGIKAILEAAHERELLDAESYAMIKGALAVSERTVADIMVPRSRMDLLDISQPLPQLLATIIETAHSRFPVYEDDRDNIIGILLAKDLLRYMLEPALDIRSLVRPAVFIPEVKRLNVLLREFRASRNHLAIVIDEHGGISGLVTMEDVLEQIVGDIEDEFDEDEEESIFPEGENQWRLTASTDISHFNATFATDLPDDEYDSVGGWLGGQLGRIPRRGDSADHDGLHIEVVRADARRALWLRVRRNAGAQPPASAAE | not soluble
